Here are results for five molecules from patent US20240417437A1, “Linker Polypeptides” (Trutino Biosciences Inc., priority 2021, published 2024).

Experiment [1] has as its target biotin-labelled collagen IV (Prospec). The experiment can be described thus: EDANS peptide (20 µM) on biotin-collagen IV-coated streptavidin magnetic beads, fluorescence Ex 340/Em 490, pH 7.5.
The target in experiment [2] is collagen cross-linked to agarose (Sigma). The experiment can be described thus: collagen-agarose pulldown, anti-mouse IL-2 immunoblot, band quantitation. (In general: A western blot detects proteins with antibodies after separation by electrophoresis.)
The target is the same in experiment [3]. The experiment is described as follows: collagen-agarose pulldown, anti-mouse IL-2 immunoblot, band intensity of the collagen-bound lane (Input (2%) band: 16707).
For experiment [4] the target is unchanged. The experiment can be described thus: pulldown with collagen-agarose, immunoblot quantified with iBright imaging system.
The target is the same in experiment [5]. The experiment is described as follows: pulldown with collagen-agarose, immunoblot quantified with iBright imaging system; reference Construct B.
Experiment [6] shares this target. The experiment can be described thus: collagen-agarose pulldown, anti-mouse IL-2 immunoblot, band intensity of the collagen-bound lane (Input (2%) band: 15267).

Where no end group is shown, it is not given here. The star is where a group is joined. EDANS = O=S(=O)(O)c1cccc2c(NCCN*)cccc12 A value given as a limit tells only on which side of the number the result lay.

In turn, KLWVLPKGPLGVRG-{EDANS} [Peptide 14 (…-*, next generation MMP cleavable linker with collagen IV targeting sequence)] registered an RFU in experiment [1] of 4560 RFU. Same read-out and setting: the result for GGGSGGGGPLGVRG-{EDANS} [P1] reads 297 RFU.

B1: Construct B - no TME: mIL2-2x(SG4)-MMPcs1-2x(G4S)-mIL2Ralpha(1-215)-mIgG1Fc (Fc fusion)
chain: APTSSSTSSSTAEAQQQQQQQQQQQQHLEQLLMDLQELLSRMENYRNLKLPRMLTFKFYLPKQATELKDLQCLEDELGPLRHVLDLTQSKSFQLEDAENFISNIRVTVVKLKGSDNTFECQFDDESATVVDFLRRWIAFCQSIISTSPQSGGGGSGGGGGPLGVRGGGGGSGGGGSELCLYDPPEVPNATFKALSYKNGTILNCECKRGFRRLKELVYMRCLGNSWSSNCQCTSNSHDKSRKQVTAQLEHQKEQQTTTDMQKPTQSMHQENLTGHCREPPPWKHEDSKRIYHFVEGQSVHYECIPGYKALQRGPAISICKMKCGKTGWTQPQLTCVDEREHHRFLASEESQGSRNSSPESETSCPITTTDFPQPTETTAMTETFVLTMEYKGCKPCICTVPEVSSVFIFPPKPKDVLTITLTPKVTCVVVDISKDDPEVQFSWFVDDVEVHTAQTQPREEQFNSTFRSVSELPIMHQDWLNGKEFKCRVNSAAFPAPIEKTISKTKGRPKAPQVYTIPPPKEQMAKDKVSLTCMITDFFPEDITVEWQWNGQPAENYKNTQPIMDTDGSYFVYSKLNVQKSNWEAGNTFTCSVLHEGLHNHHTEKSLSHSPGK
As to B1, the Bound (% input) in experiment [2] was 0.3 % of input. The molecule also came in with a Bound in experiment [3] of 2310.

B2: Construct GG (collagen IV): mIL2-SGG-KLWVLPK(SEQ ID NO: 200)-MMPcs1-2x(G4S)-mIL2Ra(1-215)-muIgG1Fc (Fc fusion)
chain: APTSSSTSSSTAEAQQQQQQQQQQQQHLEQLLMDLQELLSRMENYRNLKLPRMLTFKFYLPKQATELKDLQCLEDELGPLRHVLDLTQSKSFQLEDAENFISNIRVTVVKLKGSDNTFECQFDDESATVVDFLRRWIAFCQSIISTSPQSGGKLWVLPKGPLGVRGGGGGSGGGGSELCLYDPPEVPNATFKALSYKNGTILNCECKRGFRRLKELVYMRCLGNSWSSNCQCTSNSHDKSRKQVTAQLEHQKEQQTTTDMQKPTQSMHQENLTGHCREPPPWKHEDSKRIYHFVEGQSVHYECIPGYKALQRGPAISICKMKCGKTGWTQPQLTCVDEREHHRFLASEESQGSRNSSPESETSCPITTTDFPQPTETTAMTETFVLTMEYKGCKPCICTVPEVSSVFIFPPKPKDVLTITLTPKVTCVVVDISKDDPEVQFSWFVDDVEVHTAQTQPREEQFNSTFRSVSELPIMHQDWLNGKEFKCRVNSAAFPAPIEKTISKTKGRPKAPQVYTIPPPKEQMAKDKVSLTCMITDFFPEDITVEWQWNGQPAENYKNTQPIMDTDGSYFVYSKLNVQKSNWEAGNTFTCSVLHEGLHNHHTEKSLSHSPGK
As to B2, the Bound (% input) in experiment [2] is 0.7 % of input. In experiment [4], the fraction bound (of input) was < 1 % of input. This molecule also displayed a fold of bound fraction over Construct B in experiment [5] of 2.5 fold. Also, the Bound in experiment [6] is 5190.

The molecule GGGSGLHERHLNNN-{EDANS} [Peptide 15 (…-*, linker peptide with collagen I targeting sequence)] came in with an RFU in experiment [1] of 490 RFU.
